# According to the DeepSol protein solubility set:
# Assay: soluble on expression in E. coli; label from the status in PepcDB or PDB records
row,Sequence,soluble on expression in E. coli
1,MAKIYNAPKPKYSGWEWFKFIAIRTVFPPVLLWDLIKIGANKLLGEWVSGLVLPAQNENFDDLAISDDTVSNYNEDDLICEKHDVITHDGAHLDTFEVRHRSQESIDPKYQKYIINLVGNGMCYEHIIDDIKEDSKALKANVIGFNLRGVGQSTGKAKSSEDLVADGIAQVQRLLDQGVSPQNITLKGHSLGAGVASLVAQHFHQLGQPINLFNSRSFSTITNFLVGHMRLERDEIGRAIGHKDSTVGTILGWLAKPFIKFGVALAKWEINAGSAFKSVPEAYKDYIVVRSRKEIRGERIDDAVIPHYASIHKELASERHKKKAEIDEEIANLDDIIRKADPLAKPGLANARDALVQAREKIKSDRKMETDVQYANGHNSDWNALHNRSGKSAQTFFREFVQRTEADHAVKSIPEIN,not soluble
2,MAKKIEKNIITGLDIGTSKIIALIGEVTSDGTIEIIGIGRHPSRGLKRGVVVDIETTVNSIQRAVQEAELMAGCEVRTVYAGIAGSHIRSLNSHGIVAIRDQEVSQADVERVIDAAKAVAIPADQ,not soluble
3,MAKKTSSKGKLPPGPTPLPFIGNYLQLNTEQMYNSLMKISERYGPVFTIHLGPRRVVVLCGHDAVKEALVDQAEEFSGRGEQATFDWLFKGYGVAFSNGERAKQLRRFSIATLRGFGVGKRGIEERIQEEAGFLIDALRGTHGANIDPTFFLSRTVSNVISSIVFGDRFDYEDKEFLSLLRMMLGSFQFTATSTGQLYEMFSSVMKHLPGPQQQAFKELQGLEDFIAKKVEHNQRTLDPNSPRDFIDSFLIRMQEEEKNPNTEFYLKNLVMTTLNLFFAGTETVSTTLRYGFLLLMKHPEVEAKVHEEIDRVIGKNRQPKFEDRAKMPYTEAVIHEIQRFGDMLPMGLAHRVNKDTKFRDFFLPKGTEVFPMLGSVLRDPRFFSNPRDFNPQHFLDKKGQFKKSDAFVPFSIGKRYCFGEGLARMELFLFFTTIMQNFRFKSPQSPKDIDVSPKHVGFATIPRNYTMSFLPRHHHH,soluble
4,MAKKVFIGATGQNCGKTTMSVSLMHLARQKYQRVGFIKPIGPKIEMYNGLTVDMDAILMARTFGLEEDLALMNPVPLPKNFTRDYLSGKFDCHTLKKKIVEAFEILDQSYDFLIIEGAGHCGVGSVIGLSNACVAHMLGAPVIVVTDSGIGSAIDAVHLNLALYEKEEADVRMVIVNKLRSDKRDSILGFLRRGFPGRSLQVTGGFNYSPVLANPTLSHIGKLLNLPVHGDADGHSRIIHHIHLGAASSQRVVDALEDATLLVLTSSRDELIVTLSSLYHIPSYRDKIAGLVIAGHMPVSEITQQILDDSMIPYIRVHDSTARVFTTLMEDVSKITAEDQEKLNWIRANAENEIDFEAIDALLLEHHHHHH,not soluble
5,MAKKVKVITDPEVIKVMLEDTRRKILKLLRNKEMTISQLSEILGKTPQTIYHHIEKLKEAGLVEVKRTEMKGNLVEKYYGRTADVFYINLYLGDEELRYIARSRLKTKIDIFKRLGYQFEENELLNIMDRMSQKEFDATVRISKYIEEKEDALKDFSNEDIIHAIEWLSTAELARDEEYLELLKRLGSILKR,soluble
6,MAKRVADAQIQRETYDSNESDDDVTPSTKVASSAVMNRRKIAMPKRRMAFK,soluble
7,MAKSLLRSGNLDDYQAVGGGGQAVFESALQIRETLRLRKQQAMVDCLAIPQLNDNGDRVDWYSPIEGQAIAWKAADEETRSRALRYLASTFESAAALSRKSLQSGKTALQLFGSLLEKATQFPGENHVFLVNGKPVITFWGFVNLNENTRDDVLDCLRVTEAIPDIPLVEPEPEEKPLVEAAFSQADEPLLTSVIEPPKMPEEPAAPPVIVSEPKPAAPIPVAEAKRARRLPLWSLPVAAVVIAAVATPFFWPSSSVDGASPVRAAPVATAKTDVTPLPELTAHLPLHRAEVTPAPKAAPLPEAPVIIAAIPKDALVMDNTQMKLGTTRFLNGSWRISVDVKDPITGKPPSLRYQIQNNKGIARVVHGDNVVCRAEIFSGLHQTGELMIKSRGNARCTDGSRYPMPEITCKAGVNDVATCTARYGDHAAIPLTFKKIGA,not soluble
8,MAKTKDKSIFVSSVDSDSDIEEIIMPPKPPVEVIQLDDSDDECQDICKPIYNKKVHKDPIVRVSYRQRIPESYFPGISTSLINVQREHNNRSKYDTWGSNSCSEPRISISNIERLEKPSYHEARRVPVFERLERSREISNGRNNQNPIRFNHKFVPPINRQTPLFNNQQLLVNVPFNEHHPTFLEPRPFYRSNVNEYNAGGLNRGSFRKMGRLNMEIVRDNDDFEEHFLAPNFPAKSASIDRRVDDSLSSNSYLRSGMIMASSERLEDPRFSGRLPVFARQINNQEINNDNFYQNSICYNHNNYPSNLESRVSFPFEARHHDADGLNRGRYQVMEHVNMGIMRNSEDFEDYDITQTDQDNHFYNDKDSGKHHRHRHRSKNNKKHKKHYDRNESGNSSECREEDDYEISNPSEKRHERKKRQRSSHRKESACVDEDNYILDEDRFYQQESDEYHNSLEMEREYEHGMDVGVKKEHSYKCDDIARNARKRARLTDDDMARREELFKEWSYSKEIVDGVTQLFGGPPRESERHQKKQKELVFEADRTAMHALSIRSGALVKARLLEIHYATGCHLIFLEEVKRGGYTYVELKGDPEHIKNAQKMIDDMVIDEHYIHDGRESIVYFYNAPHELRNTRGFDLNCRSIEKYCGIIIEKMREVFGIGGYVSTAPLKLTGSVNSIHMARETMQSKTKRFLDEEKFKETVEHCTPISFYRKIIGRCGENLKTIEKVTRTAIVFKRSFDNNEACFSIRGRTDNIKQAIEKIEEITHENQPADDDPGIFQVRVPENMVARLIGRHGVEINRIRSESKAKCYLNAIRGNLDDKFMVCSGGVEEAAYAAYLTKVKIGIIDPKVIQFNSDDFNNLSKVKPMEDPRLVMLKKRYAERKECK,soluble
9,MAKTLAQGRKPGSGRKPGKGKTLREGRKPGSGRRRRQDTGGKETDGSQQDQESRLISSRDMEAVDALRELTHSPSSHSAHNSSAAPPPHAAAASTSLPPSLDYTHQSF,soluble
10,MALAPAAGCLFDDDNSFTYDVTWYCGMDECTRTEEVQRYDRARQDYSTLTITSSVDDTLFTDGIIAVSNEVPREDCRLVHGLNFLGQDIEPARFCYTPDGFELRVTIPGDGDENSTTWLLRTN,not soluble
11,MALEESLIDLERFCAKAWRVYAKEDPLSHLSFNEFDYLRVIQVFPEGVRITDLADELQVTKPSASNMVVRLEKKGLVKRIACNEDARAKRVLLTEDVAEKMSLEQIVYKDISDQMMLKLNEQEAKQLQSLLNKALGN,not soluble
12,MALELSRLPELLSRIDGYKGQPVTRLAVMLNLLVFIRSSELRYARWSEIDIDNSMWTIPAEREPLPGVKFSHRGSKMRTPHLVPLSKQVVAILAELQTWAGENGLIFTGAHDPRKPISENTVNKALRVMGYDTTQEVCGHGFRAMACSALIESGLWSRDAVERQMSHQERNGVRAAYIHKAEHLEERRLMLQWWADFLDANREKGISPFEYAKINNPLKLEHHHHHH,soluble
13,MALFRGMWSVLKALGRTGVEMCAGCGGRIPSSISLVCIPKCFSSMGSYPKKPMSSYLRFSTEQLPKFKAKHPDAKLSELVRKIAALWRELPEAEKKVYEADFKAEWKAYKEAVSKYKEQLTPSQLMGMEKEARQRRLKEKALVKRRELILLGKPKRPRSAYNIYVSESFQEAKDDSAQGKLKLVNEAWKNLSPEEKQAYIQLAKDDRIRTTYEMKSWEEQMAEVGRSDLIRRSVKRSGDISEH,soluble
14,MALGETKGIILFTKDFKEKDKLVKIFTESYGKLMFFVKGAHRKNNPLLPAILPFTEAVYIGNFREEGLSFLNSSKEVQPFRNIQQDIFINAYGTYILNLVDAAIEDQHYDPNLFQFTHMALSALNEQKDPEIITNIFEIQLLERFGVRPEWHHCVACGETQGKFDYSSKYSGVLCEKHWHLDEQRYHADPRAIHFIRLFSQVSYEKVQNIQVKEETKKSIRETIDMLYDEYVGLHLKSKKFIDQMKTWENTLKIPPRKKEEK,not soluble
15,MALLREYKEIAYQWGIWKTEESPEELLALLPDPERYEQQLTLFSSPHRKLEWLSVRVLLYQLLGEEKTIEYAPSGKPHLADSSYFISISHTRGYVAVILSPVSEVGIDIEQYGQRVHKVAHKYMRPDELISEYQGEDTWSLLLHWSAKEVMFKCMDTSEVDFREHLRIMPFQVCEHGEFPAEEYRTEHKKKFMIRYLLHPDFVMTWQVTSAYSVNECDIMKKMQ,not soluble
